Measured values reported in the RNAGym collection of RNA variant scans (doi:10.7554/elife.90254).

B1: LINE1-full (parent)
chain: UACGUAGGUGGUUUUCCCCUGAUAGUGCUAAGGGGGCCUGGAAGUUUGGACUGGGCAGAGCUCAACACAGCGUGGCAAAGUGGCUGUGGCUAGACUGCCUCUCUGGAUUCCUCGUCACUCAGCAGGGCAUCUCUGAGAGAAAUGCC

Variants of: B1
Assay: self-cleavage, relative activity (ratio to wild type); higher = more cleavage; in vitro, sequencing; the parent is a self-cleaving ribozyme

Variant	self-cleavage
UACGUAGGUGGUUUUCCCCUGAUAGUGCUAAGGGGGCCUGGAAGUUUGGACUGGGCAGAGCUCAACACAGCGUGGCAAAGUGGCUGUGGCUAGCCUGCCUCUCUGGAUUCCUCGUCACUCAGCUGGGCAUCUCUGAGAGAAAUGCC [A94C A124U]	0
UACGUAGGUGGUUUUCCCCUGAUAGUGCUAAGGGGGCCUGGAAGUUUGGACUGGGCAGAGCUCAACACAGUGUGGCAAAGUGGCUGUGGCUAGACUGCCUCUCUGGAUUCCUCGUCACUCAGCAGGGCAUCUCAGAGAGAAAUGCC [C71U U134A]	0.36
UACGUAGGUGGUUUUCCCCUGAUAGUGCUAAGGGGGCCUGGAAGUUUGGACUGGGCAGAGCUCAACACAGCGUGGCUAAGUGGCUGUGGCUAGACUGCCUCUCUGGAUUCCUCGUCACUCAGCGGGGCAUCUCUGAGAGAAAUGCC [A77U A124G]	0.79
UACGUAGGUGGUUUUCCCCUGAUAGUGCUAAGGGGGCCUGGAAGUUUGGACUGGGCAGAGCUCAACACAGCGUGGCAAAGUGGCUGUGGCUGGACUGCCUCUCUGGAUUCCUCGUCACUCAGCAGGGCAUCUCUGAGAGAAGUGCC [A92G A142G]	0.14
UACGUAGGUGGUUUUCCCCUGAUAGUGCUAAGGGGGCCUGGUAGUUUGGACUGGGCAGAGCUCAACACAGCGUGGCAAAGUGGCUGUGGCUAGACUGCCUCUCUGGAUUCCUCGUCACUCAGCUGGGCAUCUCUGAGAGAAAUGCC [A42U A124U]	1.09
UACGUAGGUGGUUUUCCCCUGAUAGUGCUAAGGGGGCCUGGAAGUUUGGACUGGGCAGAGCUCAACACAGCGUGGCUAAGUGGCUGUGGCUAGACUGCCUCUCUGGAUUCCUCGUCACCCAGCAGGGCAUCUCUGAGAGAAAUGCC [A77U U119C]	1.58
UAUGUAGGUGGUUUUCCCCUGAUAGUGCUAAGGGGGCCUGGAAGUUUGGACUGGGCAGAGCUCAACACAGCGUGGCAAAGUGGCUGUGGCUAGACUGCCUCUCUGGAUUCCUCGUCUCUCAGCAGGGCAUCUCUGAGAGAAAUGCC [C3U A117U]	1.31
UACGUAGGUGGUUUUCCCCUGAUAGUGCUAAGGGGGCCUGGAAGUUUGGACUGGGCAGAGCUCAACACAGCGUGGCAAAGUGGCCGUGGCUAGACUGCCUCUCUGGGUUCCUCGUCACUCAGCAGGGCAUCUCUGAGAGAAAUGCC [U85C A107G]	0.15
UACGUAGGUGGUUUUCCCCUGAUAGUGCUAAGGGGGCCUGGAAGUUUGGACUGGGCAGAGCUCAACAAAGCGUGGCAAAGUGGCUGUGGCUAGACUGCCUCUCUGGAUUCCUCGUCACUCAGCGGGGCAUCUCUGAGAGAAAUGCC [C68A A124G]	0.05
UACGUAGGUGGUUUUCCCCUGAUAGUGCUAAGGGGGCCUGGAAGUUUGGACUUGGCAGAGCUCAACACAGCGUGGCAAAGUGGCUGUGGCUAGACUGCCUCUCUGGACUCCUCGUCACUCAGCAGGGCAUCUCUGAGAGAAAUGCC [G53U U108C]	1.56
UACGUAGGUGGUUUUCCCCUGAUAGUGCUAAGGGGGCCGGGAAGUUUGGACUGGGCAGAGCUCAACACAGCGUGGCAAAGUGGCUGUGGCUAGACUGCCUCUCUGGAUUCCUCGUCACUCAGAAGGGCAUCUCUGAGAGAAAUGCC [U39G C123A]	0.91
UACGUAGGUGGUUUUCCCCUGAUAGUGCUAAGGGGGCCUGGAAGUUUGGACUGGGCAGAGCUCAUCACGGCGUGGCAAAGUGGCUGUGGCUAGACUGCCUCUCUGGAUUCCUCGUCACUCAGCAGGGCAUCUCUGAGAGAAAUGCC [A65U A69G]	0.09
UACGUAGGUGGUUUUCCCCUGAAAGUGCUAAGGGGGCCUGGAAGUGUGGACUGGGCAGAGCUCAACACAGCGUGGCAAAGUGGCUGUGGCUAGACUGCCUCUCUGGAUUCCUCGUCACUCAGCAGGGCAUCUCUGAGAGAAAUGCC [U23A U46G]	0.35
UACGUAGGUGGUUUUCCCCUGAUAGUGCUAAGGGGGUCUGGAAGUUUGGACUGGGCAGAGCUCAACACAGCGUGGCAAAGUGGCUGUGGCUAGACUGCCUCACUGGAUUCCUCGUCACUCAGCAGGGCAUCUCUGAGAGAAAUGCC [C37U U102A]	1.19
UACGUAGGUGGUUUUCCCCUGAUAGUGCUAAGGGGGCCUGGAAGUUUGGACUGGGCAGAGCUCAACACAGCGUGGCAAAGUGGCUGUGGCUAGACUGCCUCUCUGGAUUCCUCGUCACUCAGCAGGGCAUCUCGGAGAGAGAUGCC [U134G A141G]	1.44
UACGUAGGUGGUUUUCCCCUGAUACUGCUAAGGGGGCCUGGAAGUUUGGACUGGGCAGAGCUCAACACAGCGUGGCAAAGUGGCUGUGGCUAGACUGCCUCUCUGGAUUCCUCGUCACUCAGCAGGGCAUCUCUGAGAGGAAUGCC [G25C A140G]	2.41
UACGUAGGUGGUUUUCCCCUGAUAGUGCUAAGGGGGCCUGGAAGUUUGGACUGGGCAGAGCUCAACACAGCGUGGCAAAGUGGCUGUGGCUAGACUGCCUCUCUGGUUUCCACGUCACUCAGCAGGGCAUCUCUGAGAGAAAUGCC [A107U U112A]	2.03
UACGUAGGUGGUUUCCCCCUGAUAGUGCUAAGGGGGCCUGGAAGUUUGGACUGGGCAGAGCUCAACACAGCGUGGCAAAGUGGCUGUGGCUAGACUGCCUCUCAGGAUUCCUCGUCACUCAGCAGGGCAUCUCUGAGAGAAAUGCC [U15C U104A]	1.05
UACGUAGGUGGUUUUCCCCCGAUAGUGCUAAGGGGGCCUGGAAGUUUGGACUGGGCAGAGCUCAACACAGCGUGGCAAAGUGGCUGUGGCUAGAUUGCCUCUCUGGAUUCCUCGUCACUCAGCAGGGCAUCUCUGAGAGAAAUGCC [U20C C95U]	0.27
UACGUAGGUGGUUUUCCCCUGAUGGUGCUAAGGUGGCCUGGAAGUUUGGACUGGGCAGAGCUCAACACAGCGUGGCAAAGUGGCUGUGGCUAGACUGCCUCUCUGGAUUCCUCGUCACUCAGCAGGGCAUCUCUGAGAGAAAUGCC [A24G G34U]	0.21

Variant	self-cleavage
UACGUAGGUGGUUUUCCCCUGAUAGUGCUAAGGGGGCCUGGAAGCUUGGACUGGGCAGAGCUCAACACAGCGUGGCAAAGUGGCUGUGGCUAGACUGCCUCUCUGGAUUCCUCGUCACUCAGCAGGGCAUCUCUGAGAGUAAUGCC [U45C A140U]	1.05
UACGUGGGUGGUUUUCCCCUGAUAGUGCUAACGGGGCCUGGAAGUUUGGACUGGGCAGAGCUCAACACAGCGUGGCAAAGUGGCUGUGGCUAGACUGCCUCUCUGGAUUCCUCGUCACUCAGCAGGGCAUCUCUGAGAGAAAUGCC [A6G G32C]	0.65
UACGUAGGAGGUUUUCCCCUGAUAGUGCUAAGGGGGCCUGGAAGUUUGGACUGGGCAGAGCUCAACACAGCGUGGCAAAGUGGCUGUGGCUAGGCUGCCUCUCUGGAUUCCUCGUCACUCAGCAGGGCAUCUCUGAGAGAAAUGCC [U9A A94G]	0.27
UACGUAGGUGGUCUUCCCCUGAUAGUGCUAAGGGGGCCUGGAGGUUUGGACUGGGCAGAGCUCAACACAGCGUGGCAAAGUGGCUGUGGCUAGACUGCCUCUCUGGAUUCCUCGUCACUCAGCAGGGCAUCUCUGAGAGAAAUGCC [U13C A43G]	0.99
UACGUAGGUGGUUUUCCCCUGAUAGUGCUAAGGGGGCCUGGAAGUUGGGACUGGGCAGAGCUCAACACAGCGUGGCAAAGUGGCUGUGGCCAGACUGCCUCUCUGGAUUCCUCGUCACUCAGCAGGGCAUCUCUGAGAGAAAUGCC [U47G U91C]	0.1
UACGUAGGUGGUUUUCCCCUGAUAGUGCUAAGGGGGCCUGCAAGUUUGGACUGGGCAGAGCUCAACACAGCGUGGCAAAGUGGCUGUGGCUAGACUGCCCCUCUGGAUUCCUCGUCACUCAGCAGGGCAUCUCUGAGAGAAAUGCC [G41C U100C]	2.63
UACGUAGGUGGUUUUCGCCUGAUAGUGCUAAGGGGGCCUGGAAGUUUGGACUGGGCAGAGCUCAACACAGCGUGGCAAAGUGGCUGUGGCUAGACUGCCUCUCUGGAUUCCUCGCCACUCAGCAGGGCAUCUCUGAGAGAAAUGCC [C17G U115C]	0.84
UACGUAGGUGGUUUUCCCCUGAUAGUGCUAAGGGGGCCUGGAAGUUUGGACUGAGCAGAGCUCAACACAGCGUGGCAAAGUGGCUGUGGCUAGACUGCCUCUCUGGAUUCCUCGUCACUCAGCAGGGCAUCUCUGAGAGAGAUGCC [G54A A141G]	0.8
UACGUAGGUGGUUUUCCCCUGAUAGUGCUAUGGGGGCCUGGAAGUUUGGACUGGGCAGAGCUCAACACAGCGUGGCAAAGUGGCUGUGGCUAGACUGCCUCUCUGGAUUCCUCGCCACUCAGCAGGGCAUCUCUGAGAGAAAUGCC [A31U U115C]	1.32
UACGUAGGUGGUUUUCCCCUGAUAGUGCAAAGGGGGCCUGGAAGUUUGGACUGGGCAGAGCUCAAUACAGCGUGGCAAAGUGGCUGUGGCUAGACUGCCUCUCUGGAUUCCUCGUCACUCAGCAGGGCAUCUCUGAGAGAAAUGCC [U29A C66U]	0.25
UACGUAGGUGGUUUUCCCCUGAUAGUGCUAAGGGGGCCUGGAAGUUUGGACUGGGCAGAGCUCAACACUGCGUGGCAAAGUGGCUGUGGCUAGACUGCCUUUCUGGAUUCCUCGUCACUCAGCAGGGCAUCUCUGAGAGAAAUGCC [A69U C101U]	0.03
UACGUAGGUGGUUUUCCCCUCAUAGUGCUAAGGGGGCCUGGAAGUUUGGACUGGGCAGAGCUCAACACAGCGUGGCAAAGUGGCUGUGGCUAGACUGCCUCUCUGGAUUCCUCGUCACUCAGCAGGGCAUCUCUGAGAGAAAUGCC [G21C]	0.69
UACGCAGGUGGUUUUCCCCUGAUAGUGCUAAGGGGGCCUGGAAGUUUGGACUGGGCAGAGCUCAACACAGCGUGGCAAAGUGGCUGUGGCUAGACUGCCUCUCUGGAUUCCUCGUCACUCAGCAGGGCAUCUCUGGGAGAAAUGCC [U5C A136G]	1.62
UACGUAGGUGGUUUUCCCCUGAUAGUGCUAAGGGGGCCUGUAAGUUUGGACUGGGCAGAGCUCAACACAGCGUGGCAAAGUGGCUGUGGCUAGACUGCCUCUCUGGAUUCCUCGUCACUCAGCAGGACAUCUCUGAGAGAAAUGCC [G41U G127A]	0.69
UACGUAGGUGGUUUUCCCCUGACAGUGCUAAGGGGGCCUGGAAGUUUGGACUGGGCAGAGCUCAACACAGCGUGGCAAAGUGGCUGUGGCUAGACUGCCUCUCUGGAUUCCUCGUCACUCAGCAGGGCAUCUCUGAGAGAAGUGCC [U23C A142G]	1.61
UACGUAGGUGGUUUUCCCCUGAUAGUGCUAAGGGGGCAUGGAAGUUUGGACUGGGCAGAGCUCAACACAGCGUGGCAAAGUGGCUGUGGCUAGACUGCCUCUCUGGAUUCCUCGUCACUCAGCAGGGCGUCUCUGAGAGAAAUGCC [C38A A129G]	1.46
UACGUAGGUGGUUUUCCCCUGAUAGUGCUAAGGGGGCCUUGAAGUUUGGACUGGGCAGAGCUCAACACAGCGUGGCAAAGUGGCUGUGGCUAGACUGCCACUCUGGAUUCCUCGUCACUCAGCAGGGCAUCUCUGAGAGAAAUGCC [G40U U100A]	0.89
UACGUAGGUGGUUUUCCCCUGAUAGUGCUAAGGGGGCCUGGAUGCUUGGACUGGGCAGAGCUCAACACAGCGUGGCAAAGUGGCUGUGGCUAGACUGCCUCUCUGGAUUCCUCGUCACUCAGCAGGGCAUCUCUGAGAGAAAUGCC [A43U U45C]	0.87
UACGUAGGUGGUUUUCCCCUGAUAGUGCUAAGGGGGCCUGGAAGUUUGGACUGGGCAGAGCUCAACACAGCGUGGCAUAGUGGCUGUGGCUAGACUGCCUCUCUGGAUUCCUCGUCACUCAGCAGGGCGUCUCUGAGAGAAAUGCC [A78U A129G]	2.49
